From IntAct's records for PubMed 21300286

B1: Tumor necrosis factor ligand superfamily member 15 (Homo sapiens), O95150-1 (parent)
chain: MAEDLGLSFGETASVEMLPEHGSCRPKARSSSARWALTCCLVLLPFLAGLTTYLLVSQLRAQGEACVQFQALKGQEFAPSHQQVYAPLRADGDKPRAHLTVVRQTPTQHFKNQFPALHWEHELGLAFTKNRMNYTNKFLLIPESGDYFIYSQVTFRGMTSECSEIRQAGRPNKPDSITVVITKVTDSYPEPTQLLMGTKSVCEVGSNWFQPIYLGAMFSLQEGDKLMVNVSDISLVDYTKEDKTFFGAFLL
partner: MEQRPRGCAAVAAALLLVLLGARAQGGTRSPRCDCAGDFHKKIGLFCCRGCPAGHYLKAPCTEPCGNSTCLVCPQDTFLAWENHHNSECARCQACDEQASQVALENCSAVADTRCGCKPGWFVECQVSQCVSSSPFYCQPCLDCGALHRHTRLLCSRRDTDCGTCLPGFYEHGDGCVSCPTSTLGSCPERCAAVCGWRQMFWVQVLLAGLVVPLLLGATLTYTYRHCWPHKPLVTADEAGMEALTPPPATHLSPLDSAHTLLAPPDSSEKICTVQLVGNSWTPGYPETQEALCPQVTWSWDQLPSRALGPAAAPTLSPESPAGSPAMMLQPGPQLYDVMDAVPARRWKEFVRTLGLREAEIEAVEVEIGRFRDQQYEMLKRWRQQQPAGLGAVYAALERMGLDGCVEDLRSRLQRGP
B2: Tumor necrosis factor receptor superfamily member 6B (Homo sapiens), O95407 (parent)
chain: MRALEGPGLSLLCLVLALPALLPVPAVRGVAETPTYPWRDAETGERLVCAQCPPGTFVQRPCRRDSPTTCGPCPPRHYTQFWNYLERCRYCNVLCGEREEEARACHATHNRACRCRTGFFAHAGFCLEHASCPPGAGVIAPGTPSQNTQCQPCPPGTFSASSSSSEQCQPHRNCTALGLALNVPGSSSHDTLCTSCTGFPLSTRVPGAEECERAVIDFVAFQDISIKRLQRLLQALEAPEGWGPTPRAGRAALQLKLRRRLTELLGAQDGALLVRLLQALRVARMPGLERSVRERFLPVH
partner: B1 chain
B3: Tumor necrosis factor receptor superfamily member 6B (Homo sapiens), O95407 (parent)
chain: B2 chain

Variants of: B1
Conditions: with TNFRSF25, Q93038-1

effect of a mutation on the interaction | Variant
disrupting interaction | C162S;S187A;E190A;C202S

Variants of: B2
Conditions: with TNFSF15, O95150-1

effect of a mutation on the interaction | Variant
decreasing interaction | L85A;R89A

Variants of: B3
Conditions: with TNFSF14, O43557-1
Sequence of TNFSF14, O43557-1 (O43557 whole entry): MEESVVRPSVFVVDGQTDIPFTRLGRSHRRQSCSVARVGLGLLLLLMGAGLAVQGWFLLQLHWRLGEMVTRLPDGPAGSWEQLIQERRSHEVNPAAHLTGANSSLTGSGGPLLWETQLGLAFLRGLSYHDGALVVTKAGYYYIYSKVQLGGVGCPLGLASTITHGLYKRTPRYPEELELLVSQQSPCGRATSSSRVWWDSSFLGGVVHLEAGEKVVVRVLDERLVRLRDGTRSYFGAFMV

effect of a mutation on the interaction | Variant
decreasing interaction | L85A;R89A

Variants of: B3
Conditions: with tnfl6_human FASLG

effect of a mutation on the interaction | Variant
disrupting interaction | L85A;R89A
